The values that follow come from doi:10.1101/2020.09.11.292599 (bioRxiv, 2020).

The stoichiometry N is a count of units in the complex or per binding partner. For orientation: Kd means the free concentration of one partner at which half of the binding sites on the other are occupied at equilibrium, for simple one-to-one binding.

First the molecules themselves.
B1: recombinant PII, tag not stated for this experiment (natural protein, UniProt Q55247 1-112, looked up)
chain: MKKVEAIIRPFKLDEVKIALVNAGIVGMTVSEVRGFGRQKGQTERYRGSEYTVEFLQKLKIEIVVDEGQVDMVVDKLVSAARTGEIGDGKIFISPVDSVVRIRTGEKDTEAI

The data set “SEC-MALS” deals with the molecule itself. The data set is described as follows: SEC-MALS. On the technique in general: Size exclusion chromatography separates by hydrodynamic size, large species first.
Data set [1] concerns the target T1, C-terminally His8-tagged PII (UniProt Q55247 1-112). The data set is described as follows: BLI. In general terms: In BLI a coated tip is dipped into the sample, and binding shifts an interference pattern.
The target of data set [2] is T1, C-terminally His8-tagged PII. The data set is described as follows: BLI. This is another data set of the same source.
Data set [3] concerns the target T2, His6-tagged 2,3-bisphosphoglycerate-independent phosphoglycerate mutase (PGAM, Slr1945) (Synechocystis sp. PCC 6803, UniProt P74507 1-532).
T2 sequence (looked up): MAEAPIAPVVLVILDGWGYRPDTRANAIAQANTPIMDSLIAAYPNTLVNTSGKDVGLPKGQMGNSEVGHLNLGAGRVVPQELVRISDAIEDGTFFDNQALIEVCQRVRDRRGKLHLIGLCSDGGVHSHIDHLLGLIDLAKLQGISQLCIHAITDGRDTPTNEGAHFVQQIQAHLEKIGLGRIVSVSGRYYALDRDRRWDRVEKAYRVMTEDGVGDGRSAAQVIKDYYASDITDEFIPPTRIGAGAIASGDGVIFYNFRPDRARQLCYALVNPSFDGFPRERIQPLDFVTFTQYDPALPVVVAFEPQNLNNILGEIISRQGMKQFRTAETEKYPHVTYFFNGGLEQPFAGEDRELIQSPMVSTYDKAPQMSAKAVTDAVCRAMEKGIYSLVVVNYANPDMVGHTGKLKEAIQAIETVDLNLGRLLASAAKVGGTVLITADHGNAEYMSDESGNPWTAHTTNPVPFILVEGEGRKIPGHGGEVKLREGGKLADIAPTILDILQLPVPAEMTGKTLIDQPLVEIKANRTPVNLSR
The data set is described as follows: BLI.

For data set [4], the target named is T2, His6-tagged …. Kind of data set: BLI. The source holds these as a separate data set.
Data set [5] concerns the target B1. Kind of data set: SEC-MALS.
In data set [6] the target is T1, C-terminally His8-tagged PII. The data set is described as follows: SPR. (In SPR one partner is held on a chip, and binding of the other changes the refractive index at the surface.)

Like-named read-outs stand apart in the source and are kept apart here.

Turning to B1, the “stoichiometry N” value in “SEC-MALS” amounted to 3.

B2: Strep-tagged PirC (Sll0944), 112 amino acid version starting at Met 53 (natural protein, Synechocystis sp. PCC 6803, UniProt P77971 53-164, looked up)
chain: MSQILDPIPNNQPSALFCCYVNATNQIQVARITNVPNWYFERVVFPGQRLVFEAVPSAQLEIHTGMMASSIISDTIPCEQLSIDPDGLAAGGFISPEKEHESEDMTSQSLVA
With B2, the dissociation constant Kd was 14.1 ± 0.7 nM in data set [1], 37.3 ± 2.5 nM in data set [2], 459 nM in data set [3] and 1700 nM in data set [4].

B3: recombinant PirC (Sll0944), 112 amino acid version, tag not stated for this experiment (natural protein, Synechocystis sp. PCC 6803, UniProt P77971 53-164, looked up)
chain: MSQILDPIPNNQPSALFCCYVNATNQIQVARITNVPNWYFERVVFPGQRLVFEAVPSAQLEIHTGMMASSIISDTIPCEQLSIDPDGLAAGGFISPEKEHESEDMTSQSLVA
For the molecule B3, the “stoichiometry N” value in data set [5] was 1 PirC monomer per PII trimer; in the data set “SEC-MALS” it was 2; in data set [6] it was ~1 PirC monomer per PII trimer.
